Assay results as given in patent US8466107B2, “Fibrin-binding peptides and conjugates thereof” (Bracco Imaging SpA, priority 2006, dated 2013).
Bridge positions count the residues as written; N and C are the ends.

Biological target: T1, human clots (Homo sapiens, UniProt P02671+P02675+P02679)
T1 construct: Small plasma clots from different species (human, guinea pig and mouse); tissue Dade Behring; host or cells: pooled human plasma (Control Plasma N), clotted with Pathromtin SL and CaCl2
T1 sequence (P02671 36-629 limits assumed): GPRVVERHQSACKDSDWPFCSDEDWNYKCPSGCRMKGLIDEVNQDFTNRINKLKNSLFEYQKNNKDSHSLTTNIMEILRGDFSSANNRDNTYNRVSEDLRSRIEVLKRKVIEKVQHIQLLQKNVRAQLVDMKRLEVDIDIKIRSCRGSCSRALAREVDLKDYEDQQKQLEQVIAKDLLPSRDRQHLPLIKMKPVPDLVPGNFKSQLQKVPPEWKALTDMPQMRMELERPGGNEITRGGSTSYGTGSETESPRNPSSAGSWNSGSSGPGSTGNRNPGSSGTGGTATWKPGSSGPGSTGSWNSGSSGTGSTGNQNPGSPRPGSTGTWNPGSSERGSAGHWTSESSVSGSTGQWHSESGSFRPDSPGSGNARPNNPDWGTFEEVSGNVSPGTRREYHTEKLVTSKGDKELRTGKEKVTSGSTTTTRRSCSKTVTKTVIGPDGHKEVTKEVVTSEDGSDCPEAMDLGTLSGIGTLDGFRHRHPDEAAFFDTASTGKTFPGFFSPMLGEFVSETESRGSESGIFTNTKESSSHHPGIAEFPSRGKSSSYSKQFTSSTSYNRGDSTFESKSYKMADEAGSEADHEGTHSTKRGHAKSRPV
T1 sequence (P02675 45-491 limits assumed): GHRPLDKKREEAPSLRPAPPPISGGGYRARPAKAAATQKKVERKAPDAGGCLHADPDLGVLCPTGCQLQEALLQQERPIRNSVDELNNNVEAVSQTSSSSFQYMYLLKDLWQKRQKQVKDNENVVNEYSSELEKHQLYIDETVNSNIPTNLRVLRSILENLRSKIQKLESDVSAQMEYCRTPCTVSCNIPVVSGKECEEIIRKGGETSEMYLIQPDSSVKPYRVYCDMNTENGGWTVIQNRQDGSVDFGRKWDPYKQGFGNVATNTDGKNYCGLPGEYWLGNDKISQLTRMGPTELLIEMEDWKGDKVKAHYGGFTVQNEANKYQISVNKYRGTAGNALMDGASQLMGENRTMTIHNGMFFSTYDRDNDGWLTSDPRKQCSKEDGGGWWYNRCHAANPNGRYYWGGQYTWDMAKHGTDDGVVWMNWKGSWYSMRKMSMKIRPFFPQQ
T1 sequence (P02679 27-437 isoform P02679-2 limits assumed): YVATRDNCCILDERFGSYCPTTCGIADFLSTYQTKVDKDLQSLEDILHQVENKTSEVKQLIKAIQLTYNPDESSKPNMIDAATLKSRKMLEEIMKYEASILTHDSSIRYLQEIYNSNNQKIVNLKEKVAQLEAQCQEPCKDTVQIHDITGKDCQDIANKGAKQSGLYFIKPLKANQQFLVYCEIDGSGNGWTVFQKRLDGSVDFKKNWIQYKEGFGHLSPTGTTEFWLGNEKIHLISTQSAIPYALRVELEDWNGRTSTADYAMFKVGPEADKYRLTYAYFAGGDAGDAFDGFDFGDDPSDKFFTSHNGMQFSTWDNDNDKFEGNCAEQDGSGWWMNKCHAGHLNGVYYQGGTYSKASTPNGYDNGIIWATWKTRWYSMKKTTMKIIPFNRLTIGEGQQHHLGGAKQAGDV
Assay: In vitro MRI test of signal enhancement in plasma clots incubated with contrast agents
Format: binding
Description: Small plasma clots from different species (human, guinea pig and mouse) ranging from 0.5-7 mm in diameter were formed by combining citrate plasma (1:3,v/v) phospholipids (Reagent Pathromtin) and CaCl2 0.008 M (Dade Behring, Germany) into small 2 ml vials at 37° C. Clots were washed 3 times with TBS 1× and incubated with contrast agents at 100 μM for 30 minutes at 37° C. Two clots were prepared for each solution of incubation. After the incubation clots were washed 4 times with TBS 1× and placed into small vials filled with TBS 1× for MRI analysis. T1-weighted 2D Spin-Echo (SE) images were acquired with the following parameters: TR/TE=400/8 ms, spatial resolution=344 μm and slice thickness=2 mm. Maximum signal intensity was measured in each image containing clot and compared to the signal from a clots incubated in TBS. […]
This protocol has been developed and used to test the specificity and efficiency of the fibrin targeted contrast agents of the invention for sensitive detection of thrombus by use of MRI. […] Signal enhancement from each sample incubated with the fibrin targeted contrast agent was evaluated and compared to a standard contrast agent ProHance®. […]
High resolution MRI was then performed by using T1-weighted Spin-Echo (SE) sequences. T1 maps were also calculated from the acquisition of 2D gradient echo images or inversion recovery spin echo images. […]

Chelated Complex 1: Gd chelated complex (four DTPA-Glu units on branched lysine linker) conjugated to the fibrin-binding peptide; MRI contrast agent (Ac-WQPCPAESWTFCWDPGGGK-NH2; disulfide 4-12; not fully specified (some residues); also: further groups not given here)
Max signal Enhancement at 100 μM (human clots incubated with 100 μM complex, 30 minutes at 37° C., T1-weighted spin-echo MRI at 2T): 100%
signal enhancement in clots, ranking of tested compounds (human clots, 100 μM concentration): maximum signal enhancement
